Test results: the domain aggregation screens of Martell et al. (2025)

assay: soluble fraction after stress (log2 fold change); higher = more stays soluble; pooled small domains, quantitative proteomics; conditions: stress: 50 degC
Method in brief: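 Pooled custom libraries of small protein domains were measured in a high-throughput format, with quantitative proteomics as the read-out. Each library was stressed at 50°C. Aggregation propensity is given as the base-two logarithm of the fold change in how much of each protein stays soluble after the stress. Higher values mean a larger share of the protein remains in solution.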

Sequence	soluble fraction (log2)
HMQSLAAKINGYIVAQRTSIAAIAKEIGYSRVTVSRYLAGKYDSDPTGIEAKLAAFLAGQTGEE	-1.75
HMHMKTIEWDSLVLIMYKDMKYLKRINEGQSFHGKGGMLNYADLIGKTYGIRFGQYEIFEPSLEDIVMYG	-0.126
HMVTNELFGTRLRAFRKEKGLTIEQLAERVGLSPNYLGDIERGKKLPSMATFIRLVNELDISADEL	-0.293
HMESLNDRIKLVFKDSGLTQMDISKRLNIAQSSVSGIISGKANPSKRTLADIADRFDVNLEWLRDGTGPMK	0.337
HMQRADYLILYYIKMQAEQHPDSKVYLADLAAVMGLKVTELSKAVEKLQDNGFVAWKTDREAGRTYVELS	-1.31
HMGAFAIHTASELSAGMRIRHERFGPGVITGIDTANPASGARIQVDFDNGTSKTLLLSYAKFQI	-0.622
HMRLATSELVYRIRALIRDQELQPGERLGSERALAQSLGISRSDLRMALAVLEASHEVIRKIGRAGGIVVS	-3.14
HMIKYTIEELGELTGFTRRTIRYYVQEGLIDPPAGRGRGGFYYDSHVQQLLRIKSFQEKGIGITAMVSLM	-2.51
HMKGEIEELLYEEVTKDNNTTFLRIYIKLNDEYNTLLNLGIIGIKTEEKVNELVNLGYKKVL	-2.45
HMKFYIHEIIGFNAVDKVAGIVGKVININEDSPQKKLVVNYNGKEVFIPLVDEIVRKIDKQKNEVLITMP	0.155
HMDKSFLQSLHLIALGIVKNQMDPWELVNGWVEYYLKNKDKYIDHPNLKAVAVLKMKGLFIDHFRKS	-4.84
HMILEEIIGKNIARYREAAGLTQATLAEKIGISTAFVSRVERGQKKMKVETLYATAKVLNVSVDALLS	-2.1
HMTIATLGERIRKLRKERGLTLAELAGDKLSKGMLSLIENNRAKPSMESLEYIAKRLGVEPAELLE	0.176
HMKEAITVIGGKNNITFDASAQAEIGIYSMDGVQIQKKTISDNERIDLPAGMYVVTVKTGQANVSKVVVV	0.00681
HMGITRQQALQQINQSASPKKILNASLGKRGSEFVWDIGYLSKSGKLNYVTYSFRSGEQLNAIKN	-1.02
HMNLVELKHAEEFNTLIIQDIGGRMKPAHTLASELVRKVFHNDDFNGIDPRKVFLSIIENSKVWFNVPFI	0.119
HMTPNATWQDDAQSLLRDLIQHQPVLIQISAAKRLRDQAEQISRITGGDTVTRDHVEAAGHALGMGVT	0.0517
HMIGRIKGQLIEKKSDSVVIDVHGIGYVVYVTEKTARSLTLGDQSRDISLYSELLVKEDLLQLVGFI	0.0137
HMITERVPVPDLTGMPLMEAIKTLNSSKLQYQVVGSVIEGDENRIIDQTPKPDIMVSEKSIVLLYLETYRG	-0.509
HMSVLDEVRKLSFHQRNAVFLFYFEGYSMKEIAQIFHVKEGTVSSWLTRARKQLRKQMEEEVLYDESLP	-0.526
HMSNLNHSFQYKKNIGRKISLTYLGRDNESISKIYELIDSNDSGILVKNKNVEIFIHYEKIVSAKIKVS	-0.943
HMENIIFDIGFHKGEDTLFYLLKGYRVIAVDADPDLINEWQNIFKKYIENGKLLLLNYVISDT	-1.33
HMKPDMAVIVGSRTLTFATTTDRQILVLRTDGTMVNRLSMKAGETRTITLPAGVYIVNGKKIIV	-0.808
HMVWNVEQIKRAVDQLPDGYRVVFTLYLFEGYDHREIADILGISEGGSKSQFNRAKSKLKEILTAMS	-1.98
HMKSFIWKQYTVQITKKNVKNTNVRIKRDNPHVILMSIPYSATYKAGLLALETPHIRHWLDNYERKLKQ	-1.48

Sequence	soluble fraction (log2)
HMATIADILAEHKDKEGPLLPVLHDVQKMFGHVSEEAMREIAQALNLTRAEVYGVVSFYHDFRKEVE	-0.975
HMIKSMTGYGSAKGTVEGIEVSVELKSVNNKFLDTSIRLPRSFLFAEETIKQAVSSHISRGKVDVFVSVDS	≥ 0.62
HMPMHPEDLKKLVSIEMPFGKHKGRIIADLPGNYLNWFAREGFPPGEIGRLLQLMQEIDHNGLSDLLKPLR	-0.3
HMNPLPALLRYFRQKAGLTQQDVAAALSISRSGYANYEEGRNIPNIEQAIKLSELLNHDFLYAYTLSS	-1.99
HMRNAAGGIYGWMTLHQVAETVKLTEEEVIAITNLPAGIPRDVSLKNIEGVNDEELRALLEAYLEKQ	-0.151
HMLPLPRFASLDSSEANLRAGPGKDYPILWVYQRKGLPVEIIQEFDTWRRIRDRDGTVGWVQQNLL	-0.405
HMSTSRAEIIAFLKSNPSSEYKHELETKLDEMDWAEAVKGNSEESFLAYKQRQPNGTHNGEADEKLKVLLV	0.191
HMPIRMLQVQKTNTGYLNVRDTPSVSGALIGKVFPGDMLSSTEERDGWFLVAVPQGGTGWVSGDYVKTTS	-0.0387
HMVISNDEFEDYLNRATEQLVSELSSGKNPRDAVHDLALTFADQHNKSYDAYQRMADSLEARMHTL	0.0885
HMIDFDEQGNLWVHEMGPRHGDELNLIEKARNYGYPTVSQGDHYSGVKISNHEDIPIFKSPEKAWVPAISP	-0.0541
HMEAEPRLLDLPPGTRAGRLDKVLAQLLPEHSRSRLQGWIERGGVLVNGKEASVRQVVGPGDQLTVWEEAA	-0.0918
HMMESLGIRLKRLRKDKGLTQVELGKLSGVTGVTIGYWEKDLNEPGSKALSKLAQALGTTESYLLYGVS	-0.634
HMSKPVYILINKPKGFLASSTDKKVKKSVNDLINISNLNKIYPFDNMGRTSSGLLLLSNDLYFKKHFKDKI	0.341
HMKRQATLQIGSKRFGMDDLYFKFTVPFEDSEKLGTATIEAYNLSPATRNSIKKGMPIILNAGYEGDI	-0.225
HMQISDSGELEKIVLQVIEENPKPAEQVRSGNEKAIGALVGGVMKATQGRADGGEVNRLLRQHLGL	0.172
HMNVYAGTMINVVGLQVEDAASRLRGLFYSVKIVEEESQEPDGKVLRQNIAEGTKDLEAWTLVELTVSKYV	-0.872
HMVKPKIILADIGMITETDVTLAKASQAVLIAFNVKPSKEAKKLAEDENIKISTYNIIYEVLDFVKKSMSG	0.12
HMTGDNQTIGGGGFHHVAIRAHDFDASVKFYGETLGFREKIAWGEGDKRAIMMDTGDGNYIEIF	0.197
HMLPSELLAQQRIVVQPGHNLWRIARATYGRGARYTVIYQANREQIADPNRIFPGQVFALPAA	-0.121
HMGDLTVPDLSGLTVDQAKQRLKDMGLVLGKITTQEDSSKPDGVIISQSPSADGKINKGQLVDVVVNKLS	0.0463
HMNNLSEELNVTFPRTRDQLLNILHYVQHKYGYISKVSMQEIGNHIKMPVSEIYGTVTSYSEFKI	-1.54
HMISEKEIKIIEDILARWNGKLTWDDFTSKVAKKLNLPSLSKFTLMGYPEIKQAFLTRKQTLK	-0.328
HMSASLPAAVEDPDLPYRVGAKLRHARWGEGLLVGIQREGSDVIATVHFASVGRKRLSLQYAHLEE	-0.41
HMIPNEKEAARWDALTAEHTAKLNALEGDALDKVGSHEDVSIKRAGVGDAAFREKILSRTHPDDLERALST	0.0829
HMVDLAPTEEIIKNLPNNSRSLLIPTLQKIQNAYRYLPSPAMELLSEFLNVTRAEIYGVISFYPSLL	0.0871

Sequence	soluble fraction (log2)
HMDEVHYLADKERGTTWEEILIHADRDIKFLSLSATINNKNEFLEWLVSLRGTTSLIHSSTRPIPLEI	0.218
HMLEEIIDVKRFLVENVRGVSEKTALAILSEFGDKTMDVLRNSPNELYRIKGMSGKRIEVIKDAIANATAS	-0.275
HMLGDIYISIPRAKLQAEEYGHSFKRELAFLAVHGFYHLLGYDHQTKEEEEVMFGKQEEVLAEFDIKR	-0.218
HMDFIEYIISEESKGLRADQAISMENDKFSRSLIQKWIKKGRVLVNGRKIKPKDIVNLNDKITINPEESIN	-0.143
HMHKIRRQTKITKSLLDQIEGIGSSRKKALLNHFGSAKAVGEAGETDLGTVKGISNSLAKKIYDFFHAT	-0.281
HMPAELGVVVRNANLRSGPGTKYAIVGSAPAGTTVRIAGTNKAGDWYHLSSGRWIAAFLVDRN	-0.941
HMKVTQDIIFKRNGEEIKSKVLEITPDLIIYIDYSRADNIAREINISEVNMIIYKNGTSEIFSRPEE	0.101
HMTEYFTIESQEGERIDRYLSEELEDKSRSYIQKLIRDGHVLVDGKTVKAGYRLVAGDNIAITLPEI	-0.0879
HMVINVKEILERIKLVKGFHTQIEIARFLGVSKGTISNWLARNSVDFPLVISKLDGVDLNWLFTGIGMPQ	-3.18
HMRETELPVTIISAGRILAENLHLAGRDGGWLEAELKRRSLTAEQVLLLTVDAAGTVYLVRKEDL	-0.0641
HMDVSEITTIKWIIKETKLGINEKILIYVNSKNFTVETLMEGFEIMSKYLVENVSSDKIVYIKN	-0.179
HMQDLVAVPALTGLTENDAINKAKANNLIAVVSEYKTENSVEPGKVLEQDPESSTEVKKGTIIKLVVS	≥ 0.62
HMTPFLVRVDISDLNIRTGAGTNYSRTGQYTGKGIFTILEVKSGQGSDAGWGRLKSGAGWISLDYTTR	-2.82
HMNEPITIALREAEEAANKILNEGVHSVELSPQNGYVRRLQHELIARYGLTSASRGSDPSRRVSVGAN	-0.212
HMSYGKVQFVIDAKDAVLSIDGKETDYEKPVKLTYGSHTITVYSSDYDTWKRNLYVNSEKSTVVINLA	-2.72
HMFAQDQLFKKDNSKVDVKILEINTTEIKYKLFTYQDGPTITVAKKDVALIIYQNGVHEVIT	-2.15
HMRAEELEQFVERLKNEVMNNFPLKELSDNELREKIENLVEIRLANVYVSIEQRVAIAEQIYSSIR	-0.0429
HMTAPDDFIRAEVTASGKNGMAVAELSKRVRTRFKSFKVRELGYPHLAGYLADVEGVRVYKQGRENWVAK	-0.905
HMVDYYEILGVSPDASRKDIENAWRKKMREAHPDMGGSEDKAQLLNEAHKVLSDESARAEYDASR	0.103
HMSYKDIKEASDTGTYRDEENNIDVKWQKLFNGHNEYFDIEAYRDGERVEINNQQADRYIYLIKQEMD	0.025
HMANHIAAIHVLKSKLQMSDSDYRVLITGLTQKASTKDMSDIERQRVRDHMQGLAERMGVVK	-0.18
HMGSLQPLLLAAIDALQTHIRSGLPFRVEERLAELDQFRTELQNGSVPPQRGVNRLWAFYEDEFRL	-0.798
HMEAEGLDFAPMPGEIGKKLWQEVSKEAWAGWLKHQTMLVNENRLSFVDPAARKYLTEQTEAYFFG	0.131
HMPPPVDLDKKGYKLRGIVLEDGRSAAFVFVPAEKRVVVLRENASGPVRLLETGMRRIRLQTPEGAGYLEL	-0.724
HMGDTISVPAVRTLAYNKAMDILNAEGLKGIVADSVYDNHTAPGTVIEQNPKAGTIVKEGREVFLTIHA	0.103
